The source of these data is article PMC7802366 (The Journal of Cell Biology, 2021).

The target in test [1] is p150^GLUED subunit of dynactin, endogenous (human (endogenous in HEK-293), UniProt Q14203-1 1-1278). The experiment in a line: pull-down.
Test [2] addresses dynein heavy chain (DHC), native (human (endogenous in HEK-293), UniProt Q14204 1-4646). Description: pull-down.

Sequence of p150^GLUED subunit of dynactin, endogenous (Q14203 whole entry): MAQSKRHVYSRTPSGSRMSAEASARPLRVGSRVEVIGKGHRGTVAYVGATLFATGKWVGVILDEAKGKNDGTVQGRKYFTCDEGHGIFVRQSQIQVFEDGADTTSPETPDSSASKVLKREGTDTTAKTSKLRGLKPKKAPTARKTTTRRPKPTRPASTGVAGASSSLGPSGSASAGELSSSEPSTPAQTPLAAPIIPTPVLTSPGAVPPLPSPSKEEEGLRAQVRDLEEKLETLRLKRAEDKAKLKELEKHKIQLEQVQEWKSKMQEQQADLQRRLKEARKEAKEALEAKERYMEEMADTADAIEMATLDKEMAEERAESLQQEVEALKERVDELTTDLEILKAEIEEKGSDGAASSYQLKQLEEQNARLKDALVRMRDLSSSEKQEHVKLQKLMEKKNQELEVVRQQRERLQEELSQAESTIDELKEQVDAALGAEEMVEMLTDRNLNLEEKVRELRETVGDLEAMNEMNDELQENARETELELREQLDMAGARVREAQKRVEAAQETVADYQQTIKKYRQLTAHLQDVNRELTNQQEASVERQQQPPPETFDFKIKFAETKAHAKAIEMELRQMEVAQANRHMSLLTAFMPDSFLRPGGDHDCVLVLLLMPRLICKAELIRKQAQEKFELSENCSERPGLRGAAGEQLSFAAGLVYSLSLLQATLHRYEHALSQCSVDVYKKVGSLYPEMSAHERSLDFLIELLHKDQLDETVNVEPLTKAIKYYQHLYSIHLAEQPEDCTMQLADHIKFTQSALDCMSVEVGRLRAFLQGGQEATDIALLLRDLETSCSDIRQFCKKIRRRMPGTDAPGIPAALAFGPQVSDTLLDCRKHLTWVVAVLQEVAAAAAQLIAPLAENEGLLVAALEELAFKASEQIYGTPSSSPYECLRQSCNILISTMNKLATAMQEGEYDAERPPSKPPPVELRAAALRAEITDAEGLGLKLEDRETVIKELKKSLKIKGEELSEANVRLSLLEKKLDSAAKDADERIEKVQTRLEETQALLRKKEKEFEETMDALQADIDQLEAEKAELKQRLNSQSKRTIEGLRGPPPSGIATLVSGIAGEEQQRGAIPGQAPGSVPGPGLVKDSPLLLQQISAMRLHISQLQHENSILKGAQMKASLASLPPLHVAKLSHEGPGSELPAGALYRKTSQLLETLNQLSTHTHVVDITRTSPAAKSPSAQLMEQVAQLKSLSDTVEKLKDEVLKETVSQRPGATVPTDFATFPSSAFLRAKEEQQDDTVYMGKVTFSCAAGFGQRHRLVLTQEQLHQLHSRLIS

B1: His-SEPT9 NTE domain (aa 1–283) (domain or fragment, human, UniProt Q9UHD8-1 1-283, looked up)
chain: MKKSYSGGTRTSSGRLRRLGDSSGPALKRSFEVEEVETPNSTPPRRVQTPLLRATVASSTQKFQDLGVKNSEPSARHVDSLSQRSPKASLRRVELSGPKAAEPVSRRTELSIDISSKQVENAGAIGPSRFGLKRAEVLGHKTPEPAPRRTEITIVKPQESAHRRMEPPASKVPEVPTAPATDAAPKRVEIQMPKPAEAPTAPSPAQTLENSEPAPVSQLQSRLEPKPQPPVAEATPRSQEATEAAPSCVGDMADTPRDAGLKQAPASRNEKAPVDFGYVGIDS
With B1, the binding result in test [1] is recorded as “binds”.

B2: His-SEPT9 G domain (aa 283–586) (domain or fragment, human, UniProt Q9UHD8-1 283-586, looked up)
chain: SILEQMRRKAMKQGFEFNIMVVGQSGLGKSTLINTLFKSKISRKSVQPTSEERIPKTIEIKSITHDIEEKGVRMKLTVIDTPGFGDHINNENCWQPIMKFINDQYEKYLQEEVNINRKKRIPDTRVHCCLYFIPATGHSLRPLDIEFMKRLSKVVNIVPVIAKADTLTLEERVHFKQRITADLLSNGIDVYPQKEFDEDSEDRLVNEKFREMIPFAVVGSDHEYQVNGKRILGRKTKWGTIEVENTTHCEFAYLRDLLIRTHMQNIKDITSSIHFEAYRVKRLNEGSSAMANGMEEKEPEAPEM
Regarding B2, the binding result in test [2] and in test [1] was “binds” each time.

B3: His-SEPT9 (recombinant full-length SEPT9 isoform 1) (natural protein, human, UniProt Q9UHD8-1 1-586, looked up)
chain: MKKSYSGGTRTSSGRLRRLGDSSGPALKRSFEVEEVETPNSTPPRRVQTPLLRATVASSTQKFQDLGVKNSEPSARHVDSLSQRSPKASLRRVELSGPKAAEPVSRRTELSIDISSKQVENAGAIGPSRFGLKRAEVLGHKTPEPAPRRTEITIVKPQESAHRRMEPPASKVPEVPTAPATDAAPKRVEIQMPKPAEAPTAPSPAQTLENSEPAPVSQLQSRLEPKPQPPVAEATPRSQEATEAAPSCVGDMADTPRDAGLKQAPASRNEKAPVDFGYVGIDSILEQMRRKAMKQGFEFNIMVVGQSGLGKSTLINTLFKSKISRKSVQPTSEERIPKTIEIKSITHDIEEKGVRMKLTVIDTPGFGDHINNENCWQPIMKFINDQYEKYLQEEVNINRKKRIPDTRVHCCLYFIPATGHSLRPLDIEFMKRLSKVVNIVPVIAKADTLTLEERVHFKQRITADLLSNGIDVYPQKEFDEDSEDRLVNEKFREMIPFAVVGSDHEYQVNGKRILGRKTKWGTIEVENTTHCEFAYLRDLLIRTHMQNIKDITSSIHFEAYRVKRLNEGSSAMANGMEEKEPEAPEM
On to B3, for which the binding result in test [2] and in test [1] was “binds” in each case.
